T1: Gαi3 protein, P08754
T1 chain: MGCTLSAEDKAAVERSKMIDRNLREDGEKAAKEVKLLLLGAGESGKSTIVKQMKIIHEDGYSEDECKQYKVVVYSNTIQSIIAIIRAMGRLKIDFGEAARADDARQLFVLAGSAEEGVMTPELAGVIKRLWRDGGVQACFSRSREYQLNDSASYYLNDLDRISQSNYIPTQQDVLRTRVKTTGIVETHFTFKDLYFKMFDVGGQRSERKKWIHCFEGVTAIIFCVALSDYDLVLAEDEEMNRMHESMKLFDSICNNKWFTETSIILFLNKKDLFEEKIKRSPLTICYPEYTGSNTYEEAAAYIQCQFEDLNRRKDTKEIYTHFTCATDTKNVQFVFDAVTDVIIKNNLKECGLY

T2: C-terminally biotinylated endothelin-1
T2 chain: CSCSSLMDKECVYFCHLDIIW


Experiments:
[1] = molecular target: Endothelin-1 (Homo sapiens) (UniProt P05305); details: cited from earlier work
Gαi3 protein, P08754 = molecular target: T1, Gαi3 protein, P08754; test: ELISA (immobilized Gαi3, bound P9-ETA detected with anti-P9 antibody); details: chain shown with the change; 1 μM mutant; parent: est. 100; read off a plot
[2] = molecular target: T2, C-terminally biotinylated endothelin-1; test: ELISA (immobilized purified P9-ETA proteins, bET-1 detected with SA-HRP); details: chain shown with the change; 5 μM bET-1; proteins reconstituted with APG; parent: est. 100; read off a plot

Molecule | percent of parent (Gαi3 protein, P08754) | percent of parent [2] | Kd [1] [nM]
Endothelin receptor type A (P9-ETA fusion) (from UniProt P25101) |  |  | 60
wild type P9-ETA (human endothelin receptor type A with N-terminal P9 fusion), P25101 G261W (protein) DNPERYSTNLSNHVDDFTTFRGTELSFLVTTHQPTNLVLPSNGSMHNYCPQQTKITSAFKYINTVISCTIFIVGMVGNATLLRIIYQNKCMRNGPNALIASLALGDLIYVVIDLPINVFKLLAGRWPFDHNDFGVFLCKLFPFLQKSSVGITVLNLCALSVDRYRAVASWSRVQGIGIPLVTAIEIVSIWILSFILAIPEAIGFVMVPFEYRGEQHKTCMLNATSKFMEFYQDVKDWWLFWFYFCMPLVCTAIFYTLMTCEMLNRRNGSLRIALSEHLKQRREVAKTVFCLVVIFALCWFPLHLSRILKKTVYNEMDKNRCELLSFLLLMDYIGINLATMNSCINPIALYFVSKKFKNCFQSCLCCCCYQSKSLMTSVPMNGTSIQWKNHDQNNHNTDRSSHKDSMN | 110 % of w.t | 31 % of w.t | 
wild type P9-ETA (human endothelin receptor type A with N-terminal P9 fusion), P25101 D35N (protein) DNPERYSTNLSNHVNDFTTFRGTELSFLVTTHQPTNLVLPSNGSMHNYCPQQTKITSAFKYINTVISCTIFIVGMVGNATLLRIIYQNKCMRNGPNALIASLALGDLIYVVIDLPINVFKLLAGRWPFDHNDFGVFLCKLFPFLQKSSVGITVLNLCALSVDRYRAVASWSRVQGIGIPLVTAIEIVSIWILSFILAIPEAIGFVMVPFEYRGEQHKTCMLNATSKFMEFYQDVKDWWLFGFYFCMPLVCTAIFYTLMTCEMLNRRNGSLRIALSEHLKQRREVAKTVFCLVVIFALCWFPLHLSRILKKTVYNEMDKNRCELLSFLLLMDYIGINLATMNSCINPIALYFVSKKFKNCFQSCLCCCCYQSKSLMTSVPMNGTSIQWKNHDQNNHNTDRSSHKDSMN | 92 % of w.t | 29 % of w.t | 
wild type P9-ETA (human endothelin receptor type A with N-terminal P9 fusion), P25101 C69S (protein) DNPERYSTNLSNHVDDFTTFRGTELSFLVTTHQPTNLVLPSNGSMHNYSPQQTKITSAFKYINTVISCTIFIVGMVGNATLLRIIYQNKCMRNGPNALIASLALGDLIYVVIDLPINVFKLLAGRWPFDHNDFGVFLCKLFPFLQKSSVGITVLNLCALSVDRYRAVASWSRVQGIGIPLVTAIEIVSIWILSFILAIPEAIGFVMVPFEYRGEQHKTCMLNATSKFMEFYQDVKDWWLFGFYFCMPLVCTAIFYTLMTCEMLNRRNGSLRIALSEHLKQRREVAKTVFCLVVIFALCWFPLHLSRILKKTVYNEMDKNRCELLSFLLLMDYIGINLATMNSCINPIALYFVSKKFKNCFQSCLCCCCYQSKSLMTSVPMNGTSIQWKNHDQNNHNTDRSSHKDSMN | 97 % of w.t | 59 % of w.t | 
wild type P9-ETA (human endothelin receptor type A with N-terminal P9 fusion), P25101 F346C (protein) DNPERYSTNLSNHVDDFTTFRGTELSFLVTTHQPTNLVLPSNGSMHNYCPQQTKITSAFKYINTVISCTIFIVGMVGNATLLRIIYQNKCMRNGPNALIASLALGDLIYVVIDLPINVFKLLAGRWPFDHNDFGVFLCKLFPFLQKSSVGITVLNLCALSVDRYRAVASWSRVQGIGIPLVTAIEIVSIWILSFILAIPEAIGFVMVPFEYRGEQHKTCMLNATSKFMEFYQDVKDWWLFGFYFCMPLVCTAIFYTLMTCEMLNRRNGSLRIALSEHLKQRREVAKTVFCLVVIFALCWFPLHLSRILKKTVYNEMDKNRCELLSCLLLMDYIGINLATMNSCINPIALYFVSKKFKNCFQSCLCCCCYQSKSLMTSVPMNGTSIQWKNHDQNNHNTDRSSHKDSMN | 140 % of w.t | 26 % of w.t | 
wild type P9-ETA (human endothelin receptor type A with N-terminal P9 fusion), P25101 L59P (protein) DNPERYSTNLSNHVDDFTTFRGTELSFLVTTHQPTNLVPPSNGSMHNYCPQQTKITSAFKYINTVISCTIFIVGMVGNATLLRIIYQNKCMRNGPNALIASLALGDLIYVVIDLPINVFKLLAGRWPFDHNDFGVFLCKLFPFLQKSSVGITVLNLCALSVDRYRAVASWSRVQGIGIPLVTAIEIVSIWILSFILAIPEAIGFVMVPFEYRGEQHKTCMLNATSKFMEFYQDVKDWWLFGFYFCMPLVCTAIFYTLMTCEMLNRRNGSLRIALSEHLKQRREVAKTVFCLVVIFALCWFPLHLSRILKKTVYNEMDKNRCELLSFLLLMDYIGINLATMNSCINPIALYFVSKKFKNCFQSCLCCCCYQSKSLMTSVPMNGTSIQWKNHDQNNHNTDRSSHKDSMN | 93 % of w.t | 66 % of w.t | 
wild type P9-ETA (human endothelin receptor type A with N-terminal P9 fusion), P25101 K140I (protein) DNPERYSTNLSNHVDDFTTFRGTELSFLVTTHQPTNLVLPSNGSMHNYCPQQTKITSAFKYINTVISCTIFIVGMVGNATLLRIIYQNKCMRNGPNALIASLALGDLIYVVIDLPINVFILLAGRWPFDHNDFGVFLCKLFPFLQKSSVGITVLNLCALSVDRYRAVASWSRVQGIGIPLVTAIEIVSIWILSFILAIPEAIGFVMVPFEYRGEQHKTCMLNATSKFMEFYQDVKDWWLFGFYFCMPLVCTAIFYTLMTCEMLNRRNGSLRIALSEHLKQRREVAKTVFCLVVIFALCWFPLHLSRILKKTVYNEMDKNRCELLSFLLLMDYIGINLATMNSCINPIALYFVSKKFKNCFQSCLCCCCYQSKSLMTSVPMNGTSIQWKNHDQNNHNTDRSSHKDSMN | 110 % of w.t | 18 % of w.t | 
wild type P9-ETA (human endothelin receptor type A with N-terminal P9 fusion), P25101 F161L (protein) DNPERYSTNLSNHVDDFTTFRGTELSFLVTTHQPTNLVLPSNGSMHNYCPQQTKITSAFKYINTVISCTIFIVGMVGNATLLRIIYQNKCMRNGPNALIASLALGDLIYVVIDLPINVFKLLAGRWPFDHNDFGVFLCKLLPFLQKSSVGITVLNLCALSVDRYRAVASWSRVQGIGIPLVTAIEIVSIWILSFILAIPEAIGFVMVPFEYRGEQHKTCMLNATSKFMEFYQDVKDWWLFGFYFCMPLVCTAIFYTLMTCEMLNRRNGSLRIALSEHLKQRREVAKTVFCLVVIFALCWFPLHLSRILKKTVYNEMDKNRCELLSFLLLMDYIGINLATMNSCINPIALYFVSKKFKNCFQSCLCCCCYQSKSLMTSVPMNGTSIQWKNHDQNNHNTDRSSHKDSMN | 120 % of w.t | 50 % of w.t | 

Further lines, with some results ahead:

percent of parent (Gαi3 protein, P08754) | percent of parent [2] | Molecule | Kd [1] [nM]
120 % of w.t | 3 % of w.t | wild type P9-ETA (human endothelin receptor type A with N-terminal P9 fusion), P25101 M65K (protein) DNPERYSTNLSNHVDDFTTFRGTELSFLVTTHQPTNLVLPSNGSKHNYCPQQTKITSAFKYINTVISCTIFIVGMVGNATLLRIIYQNKCMRNGPNALIASLALGDLIYVVIDLPINVFKLLAGRWPFDHNDFGVFLCKLFPFLQKSSVGITVLNLCALSVDRYRAVASWSRVQGIGIPLVTAIEIVSIWILSFILAIPEAIGFVMVPFEYRGEQHKTCMLNATSKFMEFYQDVKDWWLFGFYFCMPLVCTAIFYTLMTCEMLNRRNGSLRIALSEHLKQRREVAKTVFCLVVIFALCWFPLHLSRILKKTVYNEMDKNRCELLSFLLLMDYIGINLATMNSCINPIALYFVSKKFKNCFQSCLCCCCYQSKSLMTSVPMNGTSIQWKNHDQNNHNTDRSSHKDSMN | 
160 % of w.t | 130 % of w.t | wild type P9-ETA (human endothelin receptor type A with N-terminal P9 fusion), P25101 S213L (protein) DNPERYSTNLSNHVDDFTTFRGTELSFLVTTHQPTNLVLPSNGSMHNYCPQQTKITSAFKYINTVISCTIFIVGMVGNATLLRIIYQNKCMRNGPNALIASLALGDLIYVVIDLPINVFKLLAGRWPFDHNDFGVFLCKLFPFLQKSSVGITVLNLCALSVDRYRAVASWSRVQGIGIPLVTAIEIVSIWILLFILAIPEAIGFVMVPFEYRGEQHKTCMLNATSKFMEFYQDVKDWWLFGFYFCMPLVCTAIFYTLMTCEMLNRRNGSLRIALSEHLKQRREVAKTVFCLVVIFALCWFPLHLSRILKKTVYNEMDKNRCELLSFLLLMDYIGINLATMNSCINPIALYFVSKKFKNCFQSCLCCCCYQSKSLMTSVPMNGTSIQWKNHDQNNHNTDRSSHKDSMN | 
130 % of w.t | 42 % of w.t | wild type P9-ETA (human endothelin receptor type A with N-terminal P9 fusion), P25101 N29D (protein) DNPERYSTDLSNHVDDFTTFRGTELSFLVTTHQPTNLVLPSNGSMHNYCPQQTKITSAFKYINTVISCTIFIVGMVGNATLLRIIYQNKCMRNGPNALIASLALGDLIYVVIDLPINVFKLLAGRWPFDHNDFGVFLCKLFPFLQKSSVGITVLNLCALSVDRYRAVASWSRVQGIGIPLVTAIEIVSIWILSFILAIPEAIGFVMVPFEYRGEQHKTCMLNATSKFMEFYQDVKDWWLFGFYFCMPLVCTAIFYTLMTCEMLNRRNGSLRIALSEHLKQRREVAKTVFCLVVIFALCWFPLHLSRILKKTVYNEMDKNRCELLSFLLLMDYIGINLATMNSCINPIALYFVSKKFKNCFQSCLCCCCYQSKSLMTSVPMNGTSIQWKNHDQNNHNTDRSSHKDSMN | 
